In the supplement of paper PMC5998384:

Legend:
HeLa Kyoto [1] = assay: solubility in G1/S (NP-40 vs SDS abundance) (log2 ratio); higher = more soluble; conditions: cell cycle stage: G1/S
HeLa Kyoto [2] = assay: melting temperature (median over replicates), in situ; higher = more thermally stable
HeLa Kyoto [3] = assay: solubility change mitosis vs G1/S (difference of NP-40 vs SDS log2 ratios) (log2 ratio difference); higher = more soluble in mitosis
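Throughout, for melting temperature (median over replicates), in situ: HeLa Kyoto cells synchronized by double thymidine or nocodazole block, proteins quantified by TMT10plex mass spectrometry, three independent biological replicates.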
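Throughout, for solubility change mitosis vs G1/S (difference of NP-40 vs SDS log2 ratios): synchronized HeLa Kyoto cells (double thymidine block for G1/S, nocodazole release for mitosis), protein amounts in NP-40 versus SDS lysates quantified by mass spectrometry, three biological replicates.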
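Throughout, for solubility in G1/S (NP-40 vs SDS abundance): HeLa Kyoto cells arrested at G1/S by double thymidine block, proteins quantified by TMT10plex mass spectrometry in mild NP-40 versus SDS extracts, three biological replicates.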

Row | Substance | solubility in G1/S (log2) (HeLa Kyoto [1]) | melting temperature (HeLa Kyoto [2]; cell cycle stage: G1/S) [°C] | melting temperature (HeLa Kyoto [2]; cell cycle stage: mitosis) [°C] | solubility change mitosis (log2) (HeLa Kyoto [3])
1 | MSVFGKLFGAGGGKAGKGGPTPQEAIQRLRDTEEMLSKKQEFLEKKIEQELTAAKKHGTKNKRAALQALKRKKRYEKQLAQIDGTLSTIEFQREALENANTNTEVLKNMGYAAKAMKAAHDNMDIDKVDELMQDIADQQELAEEISTAISKPVGFGEEFDEDELMAELEELEQEELDKNLLEISGPETVPLPNVPSIALPSKPAKKKEEEDDDMKELENWAGSM [CHMP4B] | 0.507 | 55 | 52.5 | 0.775
2 | MSATSVDTQRTKGQDNKVQNGSLHQKDTVHDNDFEPYLTGQSNQSNSYPSMSDPYLSSYYPPSIGFPYSLNEAPWSTAGDPPIPYLTTYGQLSNGDHHFMHDAVFGQPGGLGNNIYQHRFNFFPENPAFSAWGTSGSQGQQTQSSAYGSSYTYPPSSLGGTVVDGQPGFHSDTLSKAPGMNSLEQGMVGLKIGDVSSSAVKTVGSVVSSVALTGVLSGNGGTNVNMPVSKPTSWAAIASKPAKPQPKMKTKSGPVMGGGLPPPPIKHNMDIGTWDNKGPVPKAPVPQQAPSPQAAPQPQQVAQPLPAQPPALAQPQYQSPQQPPQTRWVAPRNRNAAFGQSGGAGSDSNSPGNVQPNSAPSVESHPVLEKLKAAHSYNPKEFEWNLKSGRVFIIKSYSEDDIHRSIKYSIWCSTEHGNKRLDSAFRCMSSKGPVYLLFSVNGSGHFCGVAEMKSPVDYGTSAGVWSQDKWKGKFDVQWIFVKDVPNNQLRHIRLENNDNKPVTNSRDTQEVPLEKAKQVLKIISSYKHTTSIFDDFAHYEKRQEEEEVVRKERQSRNKQ [YTHDF1] | 0.14 |  | 47.8 | -0.0272
3 | MSSRSTKDLIKSKWGSKPSNSKSETTLEKLKGEIAHLKTSVDEITSGKGKLTDKERHRLLEKIRVLEAEKEKNAYQLTEKDKEIQRLRDQLKARYSTTTLLEQLEETTREGERREQVLKALSEEKDVLKQQLSAATSRIAELESKTNTLRLSQTVAPNCFNSSINNIHEMEIQLKDALEKNQQWLVYDQQREVYVKGLLAKIFELEKKTETAAHSLPQQTKKPESEGYLQEEKQKCYNDLLASAKKDLEVERQTITQLSFELSEFRRKYEETQKEVHNLNQLLYSQRRADVQHLEDDRHKTEKIQKLREENDIARGKLEEEKKRSEELLSQVQFLYTSLLKQQEEQTRVALLEQQMQACTLDFENEKLDRQHVQHQLHVILKELRKARNQITQLESLKQLHEFAITEPLVTFQGETENREKVAASPKSPTAALNESLVECPKCNIQYPATEHRDLLVHVEYCSK [CEP55] | 0.417 | 48.1 | 48.9 | 0.238
4 | MPIVDKLKEALKPGRKDSADDGELGKLLASSAKKVLLQKIEFEPASKSFSYQLEALKSKYVLLNPKTEGASRHKSGDDPPARRQGSEHTYESCGDGVPAPQKVLFPTERLSLRWERVFRVGAGLHNLGNTCFLNATIQCLTYTPPLANYLLSKEHARSCHQGSFCMLCVMQNHIVQAFANSGNAIKPVSFIRDLKKIARHFRFGNQEDAHEFLRYTIDAMQKACLNGCAKLDRQTQATTLVHQIFGGYLRSRVKCSVCKSVSDTYDPYLDVALEIRQAANIVRALELFVKADVLSGENAYMCAKCKKKVPASKRFTIHRTSNVLTLSLKRFANFSGGKITKDVGYPEFLNIRPYMSQNNGDPVMYGLYAVLVHSGYSCHAGHYYCYVKASNGQWYQMNDSLVHSSNVKVVLNQQAYVLFYLRIPGSKKSPEGLISRTGSSSLPGRPSVIPDHSKKNIGNGIISSPLTGKRQDSGTMKKPHTTEEIGVPISRNGSTLGLKSQNGCIPPKLPSGSPSPKLSQTPTHMPTILDDPGKKVKKPAPPQHFSPRTAQGLPGTSNSNSSRSGSQRQGSWDSRDVVLSTSPKLLATATANGHGLKGNDESAGLDRRGSSSSSPEHSASSDSTKAPQTPRSGAAHLCDSQETNCSTAGHSKTPPSGADSKTVKLKSPVLSNTTTEPASTMSPPPAKKLALSAKKASTLWRATGNDLRPPPPSPSSDLTHPMKTSHPVVASTWPVHRARAVSPAPQSSSRLQPPFSPHPTLLSSTPKPPGTSEPRSCSSISTALPQVNEDLVSLPHQLPEASEPPQSPSEKRKKTFVGEPQRLGSETRLPQHIREATAAPHGKRKRKKKKRPEDTAASALQEGQTQRQPGSPMYRREGQAQLPAVRRQEDGTQPQVNGQQVGCVTDGHHASSRKRRRKGAEGLGEEGGLHQDPLRHSCSPMGDGDPEAMEESPRKKKKKKRKQETQRAVEEDGHLKCPRSAKPQDAVVPESSSCAPSANGWCPGDRMGLSQAPPVSWNGERESDVVQELLKYSSDKAYGRKVLTWDGKMSAVSQDAIEDSRQARTETVVDDWDEEFDRGKEKKIKKFKREKRRNFNAFQKLQTRRNFWSVTHPAKAASLSYRR [USP36] | -1.41 | 52.3 | 52.2 | 0.946
5 | ABTB2 | 0.00296 |  | 48.8 | -0.181
6 | MWPPCGTLRTLALARSRGARACSGDGGVSYTQGQSPEPRTREYFYYVDHQGQLFLDDSKMKNFITCFKDPQFLVTFFSRLRPNRSGRYEAAFPFLSPCGRERNFLRCEDRPVVFTHLLTADHGPPRLSYCGGGEALAVPFEPARLLPLAANGRLYHPAPERAGGVGLVRSALAFELSACFEYGPGAPALPSHVRWQGRRLALTMDLAPLLLAARSP [C8ORF82] | 0.265 | 52.4 | 54.3 | 0.0375
7 | MQAALEVTARYCGRELEQYGQCVAAKPESWQRDCHYLKMSIAQCTSSHPIIRQIRQACAQPFEAFEECLRQNEAAVGNCAEHMRRFLQCAEQVQPPRSPATVEAQPLPAS [CHCHD5] | -0.11 | 53.5 | 50.5 | 0.0671
